Test results taken from PMC9795577, “Protein import into peroxisomes occurs through a nuclear pore-like phase” (Science (New York, N.Y.), 2022).

B1: entire unstructured N-terminal region (including the YG domain) of Arabidopsis thaliana PEX13, amino acids 1–193 (domain or fragment)
chain: MASQPAGGSPPKPWEKEGNTSGPNPFRPPSNTSTAGSVEASGTANPGEVVPPPVNRPNTAANMNSLSRPVPARPWEQQNYGSTMGGGYGSNLGMTSGYGSGTYGSALGGYGSSYGGGMYGGSSMYRGGYGGGGLYGSSGMYGGGAMGGYGGTMGGYGMGMGTGMGMGMGMGMGGPYGSQDPNDPFNQPPSPPGC
notes: PEX13 of Arabidopsis thaliana, GenBank NP_187412.1, amino acids 1-193; single engineered cysteine at the C terminus for covalent derivatization; In the permeation assay it stood as a hydrogel droplet formed at 40 mg/ml (2 mM); also called N-terminal fragment; full-length fragment; source: E. coli BL21 Rosetta 2(DE3), purified under denaturing conditions (Ni-NTA), tag removed with TEV protease; …
B2: isolated YG domain of Arabidopsis thaliana PEX13, amino acids 76–193 (domain or fragment)
chain: EQQNYGSTMGGGYGSNLGMTSGYGSGTYGSALGGYGSSYGGGMYGGSSMYRGGYGGGGLYGSSGMYGGGAMGGYGGTMGGYGMGMGTGMGMGMGMGMGGPYGSQDPNDPFNQPPSPPGC
notes: PEX13 of Arabidopsis thaliana, GenBank NP_187412.1, amino acids 76-193 (YG domain); single engineered cysteine at the C terminus for covalent derivatization; also called YG domain alone; source: E. coli BL21 Rosetta 2(DE3), purified under denaturing conditions (Ni-NTA), tag removed with TEV protease; not shown: 14×His, N-terminal, cleaved
B3: full-length PEX5 fused to GFP (receptor)
chain: not shown
modifications: C-terminal GGSGGS linker and mEGFP left out

Legend:
[1] = biological target: the molecule itself; assay: hydrogel formation (gelation); purified fragment concentrated to 40 mg/ml (2 mM) in 2 M urea, 50 mM HEPES-NaOH pH 8.0, 1 mM TCEP, 1 mM EDTA, left in silicone tubing at room temperature, squeezed out and photographed
[2] = biological target: B1; assay: hydrogel permeation assay (confocal microscopy); droplets of the PEX13 1-193 hydrogel (40 mg/ml) in 25 mM HEPES-KOH pH 7.8, 130 mM KCl; GFP fusion proteins or GFP alone added at 500 nM; enrichment inside the gel over buffer after 30 min; details: both partners purified

| Binder | binding result [1] | fold enrichment inside the gel over buffer [2] |
| --- | --- | --- |
| B1 | binds | – |
| B2 | binds | – |
| B3 | – | ~20 fold |
